Our source for the IC50, median fluorescence and IKACh block, patch clamp, dose response curve values is US20190225658A1.

Test [1] concerns the target Kir3.1/Kir3.4 channel. The experiment in a line: flow cytometry dose response curve of binding on HEK cells stably transfected with Kir3.1/3.4.
Test [2] deals with Kir3.1/Kir3.4 channel. The experiment in a line: flow cytometry, HEK cells stably transfected with Kir3.1/3.4, labeled with 10 nM; unlabeled cells 162 A.U. A general note: A flow cytometer gives signals particle by particle.
Test [3] deals with Kir3.1/Kir3.4 channel. The experiment in a line: cell-based or functional assay.

Sequence of Kir3.1/Kir3.4 channel (P48549 whole entry, chain 1 of 2): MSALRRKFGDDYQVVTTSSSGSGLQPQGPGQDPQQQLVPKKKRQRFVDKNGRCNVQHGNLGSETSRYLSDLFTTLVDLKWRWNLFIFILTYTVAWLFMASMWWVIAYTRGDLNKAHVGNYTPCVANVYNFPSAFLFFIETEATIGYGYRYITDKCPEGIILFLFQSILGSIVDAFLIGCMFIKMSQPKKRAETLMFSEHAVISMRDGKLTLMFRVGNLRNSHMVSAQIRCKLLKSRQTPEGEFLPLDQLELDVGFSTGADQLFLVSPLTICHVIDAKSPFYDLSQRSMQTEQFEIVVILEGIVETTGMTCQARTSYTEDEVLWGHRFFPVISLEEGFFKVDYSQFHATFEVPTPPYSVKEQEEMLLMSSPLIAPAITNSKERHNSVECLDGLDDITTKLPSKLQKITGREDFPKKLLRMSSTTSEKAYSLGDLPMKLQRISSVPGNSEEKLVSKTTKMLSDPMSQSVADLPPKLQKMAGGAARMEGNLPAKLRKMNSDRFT
Sequence of Kir3.1/Kir3.4 channel (P48544 whole entry, chain 2 of 2, further chain): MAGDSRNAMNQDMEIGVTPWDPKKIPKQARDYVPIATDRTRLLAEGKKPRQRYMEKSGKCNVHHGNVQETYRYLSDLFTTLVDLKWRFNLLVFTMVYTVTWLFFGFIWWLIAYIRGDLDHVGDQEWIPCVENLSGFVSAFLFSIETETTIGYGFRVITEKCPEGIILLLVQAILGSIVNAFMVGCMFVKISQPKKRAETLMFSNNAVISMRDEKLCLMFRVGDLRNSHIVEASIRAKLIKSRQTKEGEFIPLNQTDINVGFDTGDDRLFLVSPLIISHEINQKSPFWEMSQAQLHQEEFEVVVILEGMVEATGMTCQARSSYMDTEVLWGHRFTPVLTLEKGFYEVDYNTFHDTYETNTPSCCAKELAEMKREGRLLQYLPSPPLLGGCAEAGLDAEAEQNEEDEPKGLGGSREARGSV

For orientation: IC50 means the point on the concentration scale where inhibition reaches its midpoint. A higher IC50 goes with weaker potency in that assay. Turning to “TertiapinQ labeled with ATT0633 (peptide)”, the IC50 with Kir3.1/Kir3.4 channel [1] amounted to 11 nM. Moreover, the median fluorescence in the test with Kir3.1/Kir3.4 channel [2] turned out to be 3840 A.U.

Take TertiapinQ (peptide): the IKACh block, patch clamp, dose response curve with Kir3.1/Kir3.4 channel [3] came to 70 nM.

In the case of TertiapinQ peptibody (Fc fusion), the IKACh block, patch clamp, dose response curve in the test with Kir3.1/Kir3.4 channel [3] was 16 nM.
